Legend:
Details in all cases: Pseudomonas putida
[1] = compound: NC(Cc1[nH]cnc1[N+](=O)[O-])C(=O)O; experiment: The kinetic constant with the compound as substrate of recombinant wild-type Escherichia coli BL21 was determined using L-hisdine as competitive inhibitor
[2] = substrate: NC(Cc1[nH]cnc1[N+](=O)[O-])C(=O)O; experiment: (§1) The kinetic constant with the compound as substrate of S143G mutant enzyme was determined
[3] = substrate: N[C@@H](Cc1c[nH]cn1)C(=O)O; experiment: as §1
[4] = compound: NC(Cc1[nH]cnc1[N+](=O)[O-])C(=O)O; experiment: The kinetic constant with the compound as substrate of wild-type Pseudomonas ATCC 11299b was determined using L-hisdine as competitive inhibitor
[5] = substrate: NC(Cc1[nH]cnc1[N+](=O)[O-])C(=O)O; experiment: (§2) The kinetic constant with the compound as substrate of recombinant wild-type HAL enzyme was determined
[6] = substrate: N[C@@H](Cc1c[nH]cn1)C(=O)O; experiment: as §2
[7] = substrate: NC(Cc1[nH]cnc1[N+](=O)[O-])C(=O)O; experiment: (§3) The kinetic constant with the compound as substrate of S143T mutant enzyme was determined
[8] = substrate: N[C@@H](Cc1c[nH]cn1)C(=O)O; experiment: as §3
[9] = substrate: NC(Cc1[nH]cnc1[N+](=O)[O-])C(=O)O; experiment: (§4) The kinetic constant with the compound as substrate of S143A mutant enzyme was determined
[10] = substrate: N[C@@H](Cc1c[nH]cn1)C(=O)O; experiment: as §4
[11] = compound: NC(Cc1[nH]cnc1[N+](=O)[O-])C(=O)O; experiment: The kinetic constant with the compound as substrate of HAL mutant S143G was determined using L-hisdine as competitive inhibitor

B1: Histidine ammonia-lyase (Homo sapiens), P42357 (protein)
chain: MPRYTVHVRGEWLAVPCQDAQLTVGWLGREAVRRYIKNKPDNGGFTSVDDAHFLVRRCKGLGLLDNEDRLEVALENNEFVEVVIEGDAMSPDFIPSQPEGVYLYSKYREPEKYIELDGDRLTTEDLVNLGKGRYKIKLTPTAEKRVQKSREVIDSIIKEKTVVYGITTGFGKFARTVIPINKLQELQVNLVRSHSSGVGKPLSPERCRMLLALRINVLAKGYSGISLETLKQVIEMFNASCLPYVPEKGTVGASGDLAPLSHLALGLVGEGKMWSPKSGWADAKYVLEAHGLKPVILKPKEGLALINGTQMITSLGCEAVERASAIARQADIVAALTLEVLKGTTKAFDTDIHALRPHRGQIEVAFRFRSLLDSDHHPSEIAESHRFCDRVQDAYTLRCCPQVHGVVNDTIAFVKNIITTELNSATDNPMVFANRGETVSGGNFHGEYPAKALDYLAIGIHELAAISERRIERLCNPSLSELPAFLVAEGGLNSGFMIAHCTAAALVSENKALCHPSSVDSLSTSAATEDHVSMGGWAARKALRVIEHVEQVLAIELLAACQGIEFLRPLKTTTPLEKVYDLVRSVVRPWIKDRFMAPDIEAAHRLLLEQKVWEVAAPYIEKYRMEHIPESRPLSPTAFSLQFLHKKSTKIPESEDL
In the case of B1, the Km [1] is reported as 5.2 mM, the Km [2] is reported as 4 mM and the Vmax [2] is reported as 0.52 IU mg-1. For the same protein, the Km [3] was 5.3 mM, the Vmax [3] was 0.0047 IU mg-1 and the Km [4] was 4 mM. For the same protein, the Km [5] was 7.7 mM, the Vmax [5] was 0.85 IU mg-1 and the Km [6] was 5.2 mM. It also gave a Vmax [6] of 25 IU mg-1, a Km [7] of 12.8 mM and a Vmax [7] of 0.87 IU mg-1. For the same protein, the Km [8] was 3.1 mM, the Vmax [8] was 0.00047 IU mg-1 and the Km [9] was 9.8 mM. The Vmax [9] was 0.87 IU mg-1, the Km [10] was 7.5 mM and the Vmax [10] was 0.0214 IU mg-1. For the same protein, the Km [11] was 5.3 mM.
